Source: US20230212304A1 (BIOSION, published 2023)
Where two headings read alike, the source gives them in different places. Values belong to the binder of their own block, whether it stands above or below them.

Experiments:
[1] = target: T1, recombinant human CTLA4 protein with human IgG1 Fc tag at the C-terminus (Acro biosystems, Cat#CT4-H5255) (human, UniProt P16410 37-162); assay: competitive ELISA: antibody pre-mixed with biotin human CTLA4-Fc, added to plate coated with the benchmark; competitor: coated Yervoy
T1 construct: bought protein; also called human CTLA4-Fc; CTLA4-Fc; not shown: human IgG1 Fc tag at the C-terminus
T1 sequence (looked up): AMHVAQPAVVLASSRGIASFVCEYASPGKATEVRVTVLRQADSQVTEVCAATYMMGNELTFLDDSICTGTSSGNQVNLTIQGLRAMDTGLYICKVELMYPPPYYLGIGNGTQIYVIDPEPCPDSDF
Experimental: (§1) Plates were washed once with wash buffer, blocked with 200 µl PBST with 5% w/v non-fatty milk, incubated for 2 hours at 37° C., and washed 4 times.
(§2) After incubation at 37° C. for 40 minutes, plates were washed 4 times again using wash buffer. Then the plates were added and incubated with 100 µl/well streptavidin conjugated HRP (1:10000 dilution in PBST, Jackson Immuno Research, Cat#016-030-084, 100 µl/well) for 40 minutes at 37° C. Plates were finally washed using wash buffer. Finally, TMB was added and the reaction was stopped using 1M H₂SO₄, and the absorbance of the each well was read on a microplate reader using dual wavelength mode with 450 nm for TMB and 630 nm as the reference wavelength, then the OD (450-630) values were plotted against antibody concentration. Data was analyzed using Graphpad Prism software and IC₅₀ values were reported.
(§3) In the capture ELISA assay, the 96-well micro plates were coated with 2 µg/ml goat anti-human IgG (AffiniPure Goat Anti-Human IgG, F(ab′)₂ fragment specific, Jackson Immunoresearch, Cat#109-005-097) instead of the goat anti-mouse IgG F(ab′)₂ fragment, 100 µl/well.

[2] = target: T2, recombinant human CTLA4-his protein (Acro biosystems, Cat#CT4-H5229) (human, UniProt P16410 37-162); assay: BLI, Octet; antibody from cell supernatant on AHC sensor, CTLA4-his as analyte
T2 construct: bought recombinant protein; not shown: his tag
T2 sequence (looked up): T1 sequence (looked up)
Experimental: (§4) Briefly, AHC biosensors (anti-human IgG Fc capture, from ForteBio) were presoaked with 10 mM glycine (pH 1.5) for 3 seconds, and then dipped in a well with running buffer (0.5% w/v BSA in PBST) for 3 seconds, the soaking and dipping steps were repeated for three times. […] A new baseline was run for 180 seconds in another well with running buffer. […] Finally, sensors were presoaked with 10 mM glycine (pH 1.5) for 3 seconds, and then were dipped in a well with running buffer for 3 seconds, the soaking and dipping steps repeated for three times. The association and dissociation curves were fit to a 1:1 Langmuir binding model using ForteBio Data Analysis 8.1.

[3] = target: T1, recombinant human CTLA4 protein with …; assay: cell-based or functional assay
[4] = target: T1, recombinant human CTLA4 protein with …; assay: cell based blocking FACS: antibody pre-mixed with human CTLA4-Fc, added to Daudi cells; blocked ligands: cell surface CD80/CD86
Experimental: (§5) Daudi cells were harvested from cell culture flasks at the log phase, washed twice and re-suspended in PBS containing 2% v/v Fetal Bovine Serum (FACS buffer). […] Cells were washed twice and re-suspended in FACS buffer. Fluorescence was measured using a Becton Dickinson FACS Canto II-HTS equipment. Data was analyzed using Graphpad Prism software and IC₅₀ values were reported.
as §3

[5] = target: T2, recombinant human CTLA4-his protein …; assay: SPR, Biacore; antibody captured on anti-human IgG CM5 chip, CTLA4-his as analyte
Experimental: (§6) Un-reacted moieties on the biosensor surface were blocked with ethanolamine. […] The antigen-antibody association kinetics was followed for 2 minutes and the dissociation kinetics was followed for 10 minutes. The association and dissociation curves were fit to a 1:1 Langmuir binding model using BIAcore evaluation software. […]

[6] = target: T3, cynomolgus monkey CTLA4-his protein (Acro biosystems, Cat#CT4-C5227) (cynomolgus monkey, UniProt G7PL88 36-161); assay: as above
T3 construct: bought recombinant protein; also called Cynomolgus CTLA4-his; not shown: his tag
T3 sequence: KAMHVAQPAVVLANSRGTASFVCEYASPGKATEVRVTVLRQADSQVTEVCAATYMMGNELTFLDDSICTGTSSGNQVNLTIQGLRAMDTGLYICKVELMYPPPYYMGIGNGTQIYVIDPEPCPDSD
Experimental: as §6

[7] = target: T1, recombinant human CTLA4 protein with …; assay: capture ELISA (plate coated with goat anti-human IgG F(ab')2 per paragraph 181), biotin human CTLA4-Fc, streptavidin-HRP, OD(450-630)
Experimental: (§7) Plates were washed once with wash buffer (PBS+0.05% v/v Tween-20, PBST) and then blocked with 200 µl/well blocking buffer (PBST with 5% w/v non-fatty milk) for 2 hours at 37° C. […] After a final wash, plates were incubated with 100 µl/well substrate TMB (Innoreagents, Cat#TMB-S-002). The reaction was stopped in 15 minutes at room temperature with 50 µl/well 1M H₂SO₄, and the absorbance of the each well was read on a microplate reader using dual wavelength mode with 450 nm for TMB and 630 nm as the reference wavelength, then the OD (450-630) values were plotted against antibody concentration. Data was analyzed using Graphpad Prism software and EC₅₀ values were reported.
as §3

[8] = target: T1, recombinant human CTLA4 protein with …; assay: cell based blocking FACS: antibody pre-mixed with human CTLA4-Fc, added to Daudi cells; blocked ligands: cell surface CD80/CD86; remark: listed apart in the source
Experimental: as §5

[9] = target: T1, recombinant human CTLA4 protein with …; assay: competitive ELISA: antibody pre-mixed with biotin human CTLA4-Fc (65 ng/ml), added to plate coated with the benchmark; competitor: coated Yervoy
Experimental: as §1, §2

[10] = target: T1, recombinant human CTLA4 protein with …; assay: cell-based or functional assay; remark: listed apart in the source
[11] = target: T2, recombinant human CTLA4-his protein …; assay: SPR, Biacore T200; antibody captured, CTLA4-his as analyte
Experimental: (§8) Un-reacted moieties on the biosensor surface were blocked with ethanolamine. […] The antigen-antibody association kinetics was followed for 2 minutes and the dissociation kinetics was followed for 10 minutes. The association and dissociation curves were fit to a 1:1 Langmuir binding model using BIAcore evaluation software.

[12] = target: T3, cynomolgus monkey CTLA4-his protein …; assay: as above
Experimental: as §8

[13] = target: T1, recombinant human CTLA4 protein with …; assay: capture ELISA: antibody captured on coated plate (anti-human IgG Fc for the chimeric antibodies), biotin human CTLA4-Fc, streptavidin-HRP, OD(450-630)
Experimental: as §7
For the capture ELISA, AffiniPure Goat Anti-Human IgG, Fcy fragment specific (Jackson Immuno Research, Cat#109-005-008) was used instead of AffiniPure Goat Anti-Mouse IgG, F(ab′)₂ fragment specific, 100 µl/well.

[14] = target: T1, recombinant human CTLA4 protein with …; assay: cell based blocking FACS: antibody pre-mixed with human CTLA4-Fc (1 ug/mL), added to Daudi cells; blocked ligands: cell surface CD80/CD86
Experimental: as §5

[15] = target: T1, recombinant human CTLA4 protein with …; assay: capture ELISA: antibody captured on anti-mouse IgG F(ab')2 coated plate, biotin human CTLA4-Fc 26 ng/ml, streptavidin-HRP, OD(450-630)
Experimental: as §7

[16] = target: T1, recombinant human CTLA4 protein with …; assay: cell based blocking FACS: antibody pre-mixed with human CTLA4-Fc, added to Daudi cells; blocked ligands: cell surface CD80/CD86; remark: listed apart in the source
[17] = target: T2, recombinant human CTLA4-his protein …; assay: BLI, Octet; antibody at 5 ug/ml on AHC sensor, CTLA4-his as analyte
Experimental: as §4

[18] = target: T2, recombinant human CTLA4-his protein …; assay: BLI, Octet RED96; antibody on AHC sensor, CTLA4-his as analyte
Experimental: as §4

- IC50 [1]: 1.71 nM
- Kd [2]: 0.614 nM
- koff [2]: 0.00019 s⁻¹
- kon [2]: 309000 M⁻¹ s⁻¹
- EC50 of IL-2 release (GS-J1 T cells + GS-C1/CD80 cells + human CTLA4-Fc, IL-2 HTRF) [3]: 28.7 nM
- IC50 [4]: 5.74 nM
- Kd [5]: 12 nM
- koff [5]: 0.00086 s⁻¹
- kon [5]: 71900 M⁻¹ s⁻¹
- Kd [6]: 7.49 nM
- koff [6]: 0.00112 s⁻¹
- kon [6]: 150000 M⁻¹ s⁻¹
- EC50 [7]: 0.746 nM
B1: huC1D1-V8 (antibody, human IgG4 S228P, kappa, V domains shown)
VH: EVQLVESGGGLVQPGRSLRLSCTASGFTFSDNWMNWVRQAPGKGLEWVGQIRNKPYNYETYYSDSVKGRFTISRDDSKSIAYLQMNSLKTEDTAVYYCTGGMDYWGQGTTVTVSS
VL: DIQMTQSPSSLSASVGDRVTITCGASEIIYGALNWYQQKPGKSPKLLIYGATNLADGVPSRFSGSGSGTDFTLTISSLQPEDVATYYCQKILSPPPWTFGGGTKVEIKR
notes: humanized IgG4/kappa; cell supernatant on Octet, purified antibody in Biacore, ELISA, FACS and the functional assay; also called hu CTLA4 C1D1-V8

- IC50 [1]: 0.642 nM
- Kd [2]: 4.37 nM
- koff [2]: 0.000471 s⁻¹
- kon [2]: 108000 M⁻¹ s⁻¹
- IC50 [8]: 5.53 nM
- EC50 of IL-2 release (GS-J1 T cells + GS-C1/CD80 cells + human CTLA4-Fc, IL-2 HTRF) [3]: 27.3 nM
- Kd [5]: 3.02 nM
- koff [5]: 0.000519 s⁻¹
- kon [5]: 172000 M⁻¹ s⁻¹
- Kd [6]: 2.13 nM
- koff [6]: 0.000576 s⁻¹
- kon [6]: 271000 M⁻¹ s⁻¹
- EC50 [7]: 0.516 nM
B2: huD1D5-V9 (antibody, human IgG4 S228P, kappa, V domains shown)
VH: EVQLVESGGGLVKPGGSLRLSCAASGFTFSDYGMAWVRQAPGKGPEWVAFISNLAYSVYYADTETGRFTISRDDAKNSLYLQMNSLRAEDTAVYYCARSGLPYAMDYWGQGTTVTVSS
VL: DIQMTQSPSSLSASVGDRVTITCRASQDISNYLNWYQQKPGKVPKLLIYYISRLHSGVPSRFSGSGSGTDFTLTISSLQPEDVATYYCQQGRMLPWTFGGGTKVEIKR
notes: humanized IgG4/kappa; cell supernatant on Octet, purified antibody in Biacore, ELISA, FACS and the functional assay; also called hu CTLA4 D1D5-V9; huDID5-V9

- IC50 [9]: 0.338 nM
- EC50 of IL-2 release (GS-J1 T cells + GS-C1/CD80 cells + human CTLA4-Fc, IL-2 HTRF) [10]: 35.1 nM
- IC50 [1]: 0.8 nM
- Kd [11]: 0.399 nM
- koff [11]: 0.0001 s⁻¹
- kon [11]: 251000 M⁻¹ s⁻¹
- Kd [12]: 0.183 nM
- koff [12]: 8.76e-05 s⁻¹
- kon [12]: 478000 M⁻¹ s⁻¹
- EC50 [13]: 0.445 nM
- IC50 [14]: 6.22 nM
- EC50 of IL-2 release (GS-J1 T cells + GS-C1/CD80 cells + human CTLA4-Fc, IL-2 HTRF) [3]: 30 nM
- IC50 [4]: ~9.72 nM
- EC50 [15]: 0.0479 nM
- IC50 [16]: ~11.6 nM
- EC50 [7]: 0.121 nM
B3: mouse anti-CTLA4 monoclonal antibody C1D1 (antibody, V domains shown)
VH: EVKLDETGGGLVQPGRPLKLSCVASGFTFSDNWMNWVRQSPEKGLEWVAQIRNKPYNYETYYSDSVKGRFTISRDDSKSSVYLQMNNLRVEDMGIYYCTGGMDYWGQGTSVTVSS
VL: DIQMTQSPASLSASVGETVTITCGASEIIYGALNWYQQKQGKSPQLLIYGATNLADGMSSRFSGSGSGRQYSLKISSLHPDDAATYYCQKILSPPPWTFGGGTKLEIK
notes: mouse mAb purified from hybridoma supernatant

- IC50 [1]: 2.11 nM
- Kd [17]: < 0.001 nM
- koff [17]: < 1e-07 s⁻¹
- kon [17]: 525000 M⁻¹ s⁻¹
- EC50 [13]: 0.505 nM
- EC50 of IL-2 release (GS-J1 T cells + GS-C1/CD80 cells + human CTLA4-Fc, IL-2 HTRF) [3]: 34 nM
- IC50 [4]: ~9.96 nM
- Kd [18]: 0.335 nM
- koff [18]: 0.000296 s⁻¹
- kon [18]: 884000 M⁻¹ s⁻¹
- Kd [5]: 0.629 nM
- koff [5]: 0.000422 s⁻¹
- kon [5]: 670000 M⁻¹ s⁻¹
- Kd [6]: 0.243 nM
- koff [6]: 0.000398 s⁻¹
- kon [6]: 1.64e+06 M⁻¹ s⁻¹
- IC50 [16]: 8.56 nM
- EC50 [7]: 0.156 nM
B4: chimeric C1D1 anti-CTLA4 antibody (antibody, human IgG4 S228P, kappa, V domains shown)
VH: B3 VH
VL: DIQMTQSPASLSASVGETVTITCGASEIIYGALNWYQQKQGKSPQLLIYGATNLADGMSSRFSGSGSGRQYSLKISSLHPDDAATYYCQKILSPPPWTFGGGTKLEIKR
notes: mouse variable domains on human IgG4/kappa, made in 293F cells
